The domain aggregation screens of Martell et al. (2025)

Test: soluble fraction after stress (log2 fold change); higher = more stays soluble; pooled small domains, quantitative proteomics
Details: stress: pH 4
How it was run: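 Values are log2 fold changes, and higher ones mean more of the domain stayed soluble. Each fold change reflects the soluble amount of a domain after acid stress and is taken as a measure of aggregation propensity. The stress was pH 4, applied to pooled custom libraries of small protein domains analysed by high-throughput quantitative proteomics.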

Which “soluble fraction (log2)” value does the source give for “HMNFTEAEQRFHFLEDQRQRGVLSLEQYRAELAQLRVTDAWGRLWMLQEQTGQWFVFHEGQWRPSQ” here?
The value was -0.266.

With “HMPVSLHEQIQQARIRAEQNVEGISLLLQVNPKYYEQIEAGDVIPDQDLLKRISSLFGWNYHEMLHREKSS” as the sequence, how does the “soluble fraction (log2)” value read?
Its value is -0.487.

Which “soluble fraction (log2)” value does the source give for “HMYHNKFADLAGFIAFNEKNEEIFTFGKYKGQNVKEVFQRDIGYYGWLQNADFPLYTKKVFTAIQLRSR” here?
The value was -1.07.

Which “soluble fraction (log2)” value does the source give for “HMSEVTYQETLRLLRRAIDVLPQQSRQIILLGLSGKNNNEVAEMLGISVNTVKTLKKGAYKSLRNSL” here?
Its value is -0.281.

With “HMEQNHYEVLGVSRDAIPEEIRKAYFEYARKLHPDANPDPGAAEQFMRIQTAYDVLSNPDRRHEYDGLLPP” as the sequence, how does the “soluble fraction (log2)” value read?
The value was -0.249.

With “HMLNDKLQTLFSLFPAVDKDLKKKGVTRQILWEQYKRNHPDGVGRSQFNYYYAQWKDQVNPT” as the sequence, how does the “soluble fraction (log2)” value read?
Its value is 0.22.

For “HMAKIEVENLEETILENLKANNGFMPYNDKTSPEEIYEVFHVSKKHFKNSLGGLMKKGLIFQNEKGTKL”, which “soluble fraction (log2)” value is on record?
Its value is -0.444.

For “HMENSMDTDWDVSGVDPSQYRLLFSTLGAIAGVKDVGLNPDGLKIIHTPEALPAIKQAFDANNLKLKMRTN”, which “soluble fraction (log2)” value is on record?
The value was -0.251.

Which “soluble fraction (log2)” value does the source give for “HMKGTVKFFNESKGFGFITEEGTNKEHFVHVSGLVDEIRENDEVEFDLQDGRKGLNAVNVRV” here?
The value was 0.0618.

For “HMSGIESIVIPLKGLDFDMISSTLTPQLKQAIKYDKQSDSIILVGTNAKVNIIAKQVNAMVEVYKLKT”, which “soluble fraction (log2)” value is on record?
The value was -0.0326.

For “HMLSDLTPGDLVVHATHGIGRFLGIRKLELEGMTKDYITIQYRGNENLYVPVTQMDLVSRYI”, which “soluble fraction (log2)” value is on record?
Its value is -0.975.

For “HMNEWSIDINLADEKQWTAKTKLSPAIIQNIIRYKNYLGGFTNLNQIKKVYGFTEANYYLLKPHLQLGK”, which “soluble fraction (log2)” value is on record?
The value was -0.386.

Which “soluble fraction (log2)” value does the source give for “HMSSIDLTARSGRAALKHRLSLLGYEFSKIELETLYVRFIELADEKKLLHDEDLIELVKEKN” here?
Its value is -0.655.

Which “soluble fraction (log2)” value does the source give for “HMSTADGGYPSIVINDGRVIDTNLQKLGLDRSWLSAELKRQGKGSEKDIFLMTVNQRREVYISVKEA” here?
The value was -0.589.

Which “soluble fraction (log2)” value does the source give for “HMEDVDLFTKAMAALPNRYRDILLLRYSHGYTVEEISDILSMKPENVKKTIQRARKKLGEILEAEG” here?
The value was -0.202.

With “HMGNYRVIKWGMQGDDVKLMQQMLINRGYVLSATGKYASRTLKAIMAFQEANGLKADGIVGKRTWNKLL” as the sequence, how does the “soluble fraction (log2)” value read?
Its value is -0.134.

For “HMDVSVPDVTGTRLDRAQSLLEAQGLTLGKVEEFFHATEPAGIVYDQEPRPGTRVDEGTAISVSVSKGPEA”, which “soluble fraction (log2)” value is on record?
The value was 0.0997.

Which “soluble fraction (log2)” value does the source give for “HMASMNPVWLEFPNIPWGSAGWRMGWGEDYMRRWAKWYISLAEVERQSYKSDWPEPQEWEGFYAFMEHGT” here?
The value was -1.23.

With “HMNTVAGAISDLSFKVRGSEDIEKLNRLKALSIQAKLDVQGQEEAERLISELEAKYGSLGMTVDKVSGKIA” as the sequence, how does the “soluble fraction (log2)” value read?
Its value is 0.192.

Which “soluble fraction (log2)” value does the source give for “HMLKFGLSQRELQILALLPTDEPLSILAKSLFISESTLKTHLTHIYRKLGVKNRLQAINVARKAGLLK” here?
Its value is -0.502.

Which “soluble fraction (log2)” value does the source give for “HMNYAVTAARRESILNAALEIFGKSGYNGSSVKQVALAVGMTEAGVLHHFGTKSNLLIEVLRV” here?
Its value is at least 0.43.

For “HMVSLSENQKIVLESLNTAMSARELMEILNLSDISHFRRNILNPLLLEGLIVRTKPDKPKSSKQKYIKANF”, which “soluble fraction (log2)” value is on record?
Its value is -0.354.

With “HMDNWAALLSEREVQVSRLVANGASNKEIADHLAITERTVKAHLTAVFEKLGVRDRLQLSLRVNGL” as the sequence, how does the “soluble fraction (log2)” value read?
The value was -1.64.

Which “soluble fraction (log2)” value does the source give for “HMSLSPAATRSRGYPSVLLTMKAPERLVSAAGPDRRAYLVGTDPLVIELPGVKGLYKVDPDQIVFE” here?
The value was -0.0637.

Which “soluble fraction (log2)” value does the source give for “HMEKIRIQKYLSERGVMSRRAADSALAEGRIAVNGVTARPGDKIDPSSDTLTIDGRIVTTGTAP” here?
The value was at least 0.43.

Which “soluble fraction (log2)” value does the source give for “HMPDAGQRRYLELVTALAGARSLTIDDLERRAIRFAEWGNGYSGRTARQFIDTLLQDRGVAEEL” here?
The value was -0.935.

With “HMTLPEKSKRLFSQDDFWDQIFYRIGEGQSLREVSKYYKIPYTTIHDRIHSDEGIKLKYLEALTS” as the sequence, how does the “soluble fraction (log2)” value read?
The value was -0.592.

Which “soluble fraction (log2)” value does the source give for “HMAPAPYLVKVTANKLNIRSGPGTNYKIQGAITDKGTYTIVDTQGRWGKLKSGAGWIYLNYTKK” here?
Its value is 0.22.

Which “soluble fraction (log2)” value does the source give for “HMDYNMEEWSLTADQLKSGDTILILNLGKTATLLESTRGKKNVRVRMGNIKTIVETSSIRGNPHQ” here?
The value was -0.729.

For “HMGLSNYEFNSISQTVKEKLEQGPLTLKALVDETAHLFAEDKVVSVVQWLIDQRDLAYDDHGLLQWKG”, which “soluble fraction (log2)” value is on record?
The value was -0.871.
